From publication PMC9542132 come the findings set out here.

Experiment [1] addresses CdvB1 from Metallosphaera sedula, MBP tag cleaved off with 3C protease (Metallosphaera sedula). Put plainly: co-sedimentation; 1 uM MBP-CdvB1 with 0.1 uM 3C protease, 50 mM HEPES pH 7.4, 50 mM NaCl, 5 mM MgCl2, Ficoll 41.25 mg/mL, overnight at 4 °C; 0.6 uM CdvC added, nucleotide or buffer, 2 min at 50 °C; 140 000 g 30 min at 4 °C; pellet and supernatant on SDS/PAGE.
The target is the same in experiment [2].
Experiment [3] has the same target. The source holds these as a separate data set.

For the molecule “CdvB1 from Metallosphaera sedula, MBP tag cleaved off with 3C protease (natural protein)”, the filament-to-monomer ratio (with CdvC and ADP or ATPγS, no hydrolysable nucleotide) in experiment [1] came out at 2.

B1: CdvC from Metallosphaera sedula (enzyme)
chain: MSAQVMLEEMARKYAIAAVRADKEGRREDAINNYKKAIEVLTQIVTLYPDMVARNAYEQMINEYKKRLETLNQMVPEGGEETEKAEEDIVMKEKPKVTLNEIVGLEDVKEALKEAVVYPSKRPDLFPLGWPRGILLYGPPGCGKTMIAAAVANELDSEFIHVDAASIMSKWLGEAEKNVAKIFKTARELSKKENKPAIIFIDELDALLASYTSEVGGEARVRNQFLKEMDGLADKNEISKVYVIGATNKPWRLDEPFLRRFQKRIYITLPDKAHRLELLKHYSSKVKLDPNVNLEELAELTDGYTASDIRDIVQSAHMRVVKEMFEKNLQEPRAINMDDFREVLKVRKPSVNQDMLKAYAAWHEKFKAL
As to B1, the ATP consumed by CdvC (0.1 uM) in 25 min at 50 °C with CdvB1 filaments (1 uM) against CdvC alone in experiment [2] turned out to be 8 fold. For the same molecule, in experiment [3], the filament-to-monomer (pellet-to-supernatant) ratio of CdvB1 in the sedimentation assay after CdvC with ATP, 2 min at 50 °C amounted to 0.1.
